Source: the supplement of paper PMC9170038

Tested on: K4 kissing-loop RNA reporter
Assay: apparent KD of K4 kissing-loop reporter; higher = weaker reporter binding
Conditions: Eterna round: R107
Experimental: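 RNA-MaP round R107: designed RNA switches with theophylline, tryptophan, arginine or FMN aptamers are transcribed on-chip within common flanks. They are titrated with a labelled K4 kissing-loop RNA reporter in RNA-MaP buffer (100 mM Tris pH 7.5, 80 mM KCl, 4 mM MgCl2), without ligand or with the indicated ligand. Median apparent KD per design.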

[1] = input ligand: theophylline 20 uM
[2] = input ligand: tryptophan 2.4 mM
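Note: bound reporter read as fluorescence of individual clusters on recovered sequencing chips by microscopy, with normalized cluster intensities fitted with a binding model.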

Row | Sequence | apparent KD of K4 kissing-loop reporter (input ligand: FMN 200 uM) | apparent KD of K4 kissing-loop reporter (input ligand: arginine 13.2 mM) | apparent KD of K4 kissing-loop reporter (input ligand: none) | apparent KD of K4 kissing-loop reporter [1] | apparent KD of K4 kissing-loop reporter [2]
1 | UGAUAGGACAGAAGGAGCGGUAGUGAUGUUACCAAAAGGUUAAGGUGUCAAAAGACACCCUGCCAGGUAGGUCGCUGUCCUAUCU | 117 nM | 98 nM | 106 nM | 89.9 nM | 83.4 nM
2 | UGAUAGGACAGAAGGAGCGGUAGUGAUGUUGCCAAAAGGGUAAGGUGUCAAAAGACACCCUACCAGGUAGGUCGCUGUCCUAUCU | 83.9 nM | 93.2 nM | 84.6 nM | 87 nM | 83.4 nM
3 | UGAUGUUUAGGUCACCCAGUGAUGUUGGAAGGAGCGUGCGAAAGCACAGGUAGGUCGCCAACCUAAAAGUGACCUGAGCAUCUAA [#SwitchBubble 8 #K4Early] | 496 nM | 210 nM | 511 nM | 427 nM | 846 nM
4 | UGCAUCGUUGGCAGGCGCACCACACAGUGUAAGGAUAUGAUGUCGUUCAGAAGGUACGCUUGACCGAGUGAUGUUCGGGAGUGCC [theeternabot_sameState_KL_FMN_A_9] | 224 nM | 200 nM | 218 nM | 245 nM | 196 nM
5 | UGCCGCAAGGCGAGCGCUCCCACUCCGGAAGGAGCGCCCGUAAGGGCAGGUAGGUCGCCGGAGUGAUGUUCCGGUGGAGGGCUCG [#2 Exclusion - Arginine A Attempt #24 (Inspired by Omei)] | 1270 nM | 283 nM | 537 nM | 398 nM | 351 nM
6 | UGGACCAAGGAGUGAUGUUCCAAAUGUGAUACCAGCCACGAAAGUGGCCCUUGGCAGCACUGCCAAAGGACGAAAGUCCGGUCCU [#SwitchBubble 10 #StaticStem #K4Early] | 371 nM | 352 nM | 382 nM | 659 nM | 280 nM
7 | UGGACCUGACUCGAUAAGAGUCAAAGGGAUACCAGCCACGAAAGUGGCCCUUGGCAGCUCUGCCAGUGAUGUUGGUCAAGGUCCU [#SwitchBubble 6 #StaticStem] | 925 nM | 701 nM | 1310 nM | 590 nM | 854 nM
8 | UGGACCUGACUCGAUAAGAGUCAAUGGGAUACCAGCCACGAAAGUGGCCCUUGGCAGCUCUACCAGUGAUGUUGGUCAAGGUCCU [#SwitchBubble 8 #StaticStem] | 1050 nM | 511 nM | 860 nM | 716 nM | 899 nM
9 | UGGAGGAGUGAUGUUCCCGAAACAUGAGAUACCAGCGUCACAGUCCGCCCUUGGCAGCUCGGUCCAAUUUGCCUCGCGGGUAAUG [theeternabot_sameState_KL_Theo_A_23] | 244 nM | 251 nM | 299 nM | 257 nM | 182 nM
10 | UGGAGUUGACGAAAAGUCAACUCCCGAGAAGGAGCGGACGAAAGUCCAGGUAGGUCGCUCGCUACCAGUGAUGUUGGUACAUAAA | 101 nM | 153 nM | 130 nM | 147 nM | 109 nM
11 | UGGAGUUGACGAAAAGUCAACUCCUGAGAAGGAGCGGACGAAAGUCCAGGUAGGUCGCUCACUAGCAGUGAUGUUGCUACAUAAA [#OpenEnded 2] | 202 nM | 211 nM | 219 nM | 253 nM | 208 nM
12 | UGGAGUUGACGAAAAGUCAACUCCUGAGAUACCAGUGACGAAAGUCACCCUUGGCAGCUCACUGCCAGUGAUGUUGGAAAUAAAA [#01 K4 Theophylline A Same State] | 346 nM | 182 nM | 224 nM | 337 nM | 217 nM
13 | UGGAGUUGACGAAAAGUCAACUCCUGAGAUACCAGUGACGAAAGUCACCCUUGGCAGCUCACUGCCAGUGAUGUUGGAAGAUAAA [whbob_SS_Theo_A_w46] | 208 nM | 149 nM | 438 nM | 289 nM | 585 nM
14 | UGGAGUUGACGAAGAGUCAACUCCUGAGAUACCAGUGACGAAAGUCACCCUUGGCAGCUCUCUGCCAGUGAUGUUGGUUUAUAAG [#07 K4 Theophylline A Same State] | 139 nM | 89.4 nM | 144 nM | 177 nM | 117 nM
15 | UGGCGAGUGAUGUUCGUUGUUGUUGUGUGUCGAGGACCGGUACGGCCGCCACUCGAGUUGGUUGUUGUUGUUGCUGUUGUUGCUG [#04 K4 Tryptophan A Same State] | 158 nM | 124 nM | 155 nM | 130 nM | 87.6 nM
16 | UGGUCUGCACGAAGGAGCGCCCUGACAGGUUGCUGCCGUGGGCAGUGAUGUUGCUUAGUCCGGCAGGUAGGUCGCGUGCAGACCA | 210 nM | 205 nM | 243 nM | 189 nM | 170 nM
17 | UGGUUUAACUGAAGGAGCGGCAAUUGAUAAGUAAAUAUAGUGAUGUUAUAUAAGAUAGAGAGCCAGGUAGGUCGCAGAGGUAUUU [ExArgB.O] | 145 nM | 147 nM | 141 nM | 143 nM | 141 nM
18 | UGUACCGAAUCAGGAUAUGUCGUCGAAAGACGAAAUGGAGUGAUGUUCCUUAAACUGCGAAAGCAGACAGAAGGGAUUUGGUACU [FmnBS 29 A9+U77] | 161 nM | 386 nM | 470 nM | 403 nM | 385 nM
19 | UGUACCGAGUCAGGAUAUCAUAAAGUUGGAGUGAUGUUCCAAUAACGACUGACAAAGUCGGUCGAUUGAGAAGGGACUUGGUACU [FmnBS 9 #SwitchBubble #StaticStem] | 160 nM | 139 nM | 141 nM | 143 nM | 151 nM
20 | UGUACCGAGUCAGGAUAUGGCGUCGAAAGACGAAUCUUAGUGAUGUUAGGGAUCUGCGAAAGCAGUUCAGAAGGGACUUGGUACU [FmnBS 26 U37+U67] | 349 nM | 427 nM | 506 nM | 556 nM | 515 nM
21 | UGUACCGAGUCAGGAUAUGGCGUCGAAAGACGAAUUCUAGUGAUGUUAGGGAUCUGCGAAAGCAGUUCAGAAGGGACUUGGUACU [FmnBS 26 U36+U67] | 243 nM | 288 nM | 342 nM | 470 nM | 360 nM

Row | Sequence | apparent KD of K4 kissing-loop reporter (input ligand: FMN 200 uM) | apparent KD of K4 kissing-loop reporter (input ligand: arginine 13.2 mM) | apparent KD of K4 kissing-loop reporter (input ligand: none) | apparent KD of K4 kissing-loop reporter [1] | apparent KD of K4 kissing-loop reporter [2]
22 | UGUACCGAGUCAGGAUAUGUCGUCGAAAGACGAAUCCUAGUGAUGUUAGGGAUCUGCGAAAGCAGUGCAGAAGGGACUUGGUACU [FmnBS 26 U20+G67] | 235 nM | 182 nM | 216 nM | 226 nM | 207 nM
23 | UGUAUCAUCUAAGGAUAUAUCAUGUGAUGCACCGAGUAUCGCAUCAAUUCUGAGUGAUGUUCAGGUAUAGAAGGUAGAUGAUGCA [FMN B SS t2] | 207 nM | 178 nM | 212 nM | 259 nM | 228 nM
24 | UGUAUGGACUGAAGGAGCGCUAGGAAAGUGAGUGAUGUUCAUAUAAAAGUAUAAAGGGUUUGGCAGGUAGGUCGCAGUCCAUACU [KL-SSArg B5] | 225 nM | 344 nM | 234 nM | 270 nM | 135 nM
25 | UGUAUGUGAUUUGAUACCAGACCAGUUGGUGGUAUAUGAGUGAUGUUUAUGUUGGUUUGGGUCCCUUGGCAGCAAAUCGCAUACU [KL-SSTheoB11] | 591 nM | 307 nM | 491 nM | 356 nM | 386 nM
26 | UGUAUGUGAUUUGAUACCAGACCAUCUUGUGAGAAAUGAGUGAUGUUUAUUUUGGUUUGGGUCCCUUGGCAGCAAAUCGCAUACU [KL-SSTheoB24] | 507 nM | 356 nM | 505 nM | 419 nM | 439 nM
27 | UGUAUGUGUCAGCGAGUGAUGUUCGACGAUACCAGACUCGAUAGAGUCCCUUGGCAGCGUAAUGCAUGCCAACUGGCACAUACUA [#SwitchBubble 12 #K4Early] | 745 nM | 651 nM | 837 nM | 608 nM | 597 nM
28 | UGUCAUUGGUCGGCCGCCACUAAAAUAAAAGAGUGAUGUUCUUAAAAGACGGACAAAGUCUGUCAUAGGACCGGGACCGAUGACU [TrypBS 23 #SwitchBubble #StaticStem] | 547 nM | 425 nM | 529 nM | 436 nM | 202 nM
29 | UGUCAUUGGUCGGCCGCCACUAGACGGAUCAUAAGAUCUGUCAAUAAGAGUGAUGUUCUAAAUAAUAGGACCGGGACCGAUGACU [TrypBS 27 #SwitchBubble #StaticStem] | 988 nM | 653 nM | 907 nM | 681 nM | 647 nM
30 | UGUCAUUGGUCGGCCGCCACUAGGACCGGGUUUUACCUAGUGAUGUUAGUAUGAACGGCCGCCACUAGGACCGGGACCGAUGACU [KL-SSTryp-B25 #DoubleAptamer] | 343 nM | 195 nM | 322 nM | 442 nM | 113 nM
31 | UGUCAUUGGUCGGCCGCCACUCCGUAACGAGUGAUGUUCUAAAAGACGGAUCGAAAGAUCUGUCGGAGGACCGGGACCGAUGACU [FiskerMod 7 - Jieux - Same State - Tryptophan B] | 725 nM | 149 nM | 448 nM | 199 nM | 900 nM
32 | UGUCAUUGGUCGGCCGCCACUUCAUAGAGAGUGAUGUUCUUUAAGACGGAUCGAAAGAUCUGUCGAAGGACCGGGACCGAUGACU [FiskerMod 10 - Jieux - Same State - Tryptophan B] | 924 nM | 527 nM | 1390 nM | 777 nM | 262 nM
33 | UGUCAUUGGUCGGCCGCCACUUCAUGUAGAGUGAUGUUCUGUAGGACGGAUCGAAAGAUCUGUCGAAGGACCGGGACCGAUGACU [FiskerMod 14 - Jieux - Same State - Tryptophan B] | 818 nM | 725 nM | 1180 nM | 727 nM | 272 nM
34 | UGUCGGUGAAGAAUGUUAGUGAUGUUGGCACGAGGACCGGUACGGCCGCCACUCGGUAAUCAUCGCAAUUAUCGAUGGCGUAGCC [theeternabot_exclusion_KL_Trp_A_3] | 183 nM | 170 nM | 147 nM | 166 nM | 182 nM
35 | UGUCUGAUGGAAACAUCGGACUUUACUGAUACCAGUAUCGAUAGAUACCCUUGGCAGCAGAAUCAGUAAUAACGAGUGAUGUUCG [Ex Theophylline A K4 3] | 347 nM | 280 nM | 386 nM | 317 nM | 310 nM
36 | UGUGGAGGAUAUGAUACCAGCAGUGAGAGAGAGGAAGUAUAGUGAUGUUAUAUGAGAGAAUGCCCUUGGCAGCGUGUGUAGUAGG [SSTheophylB.J] | 189 nM | 165 nM | 200 nM | 153 nM | 210 nM
37 | UGUGUUUACCUGACUCAGUGAUGUUGAGAAGGAGCGUGCGAAAGCACAGGUAGGUCGCUCAAUCCUUAAUCAGGUGAGCACUAAA [#SwitchBubble 13 #K4Early] | 394 nM | 507 nM | 502 nM | 447 nM | 359 nM
38 | UUAAUAUUGUCGGCCGCCACUGUUUAGUAUUUUGUAUAAUCUAUUUCAAAGUGAUGUUUUGAUUCCAGGACCGGGACAUUUGAUA [JR_Nu_ExcTryptoB_Sub031] | 597 nM | 414 nM | 536 nM | 486 nM | 298 nM
39 | UUAAUUCCGGUGGUGUGUAGAACACAGUUACGAGGACCGGUACGGCCGCCACUCGGAUGCACUUUCAGUGAUGUUGAAAGCAUCA [Same State Tryptophan A GF 1] | 670 nM | 514 nM | 643 nM | 498 nM | 690 nM
40 | UUACGAGUGAUGUUCGAAUAAAUCCAUUCAGAGGAUAUAGUAUUAACUAGAAGGCUGAAACCAACUUCGAGUGAUGUUCGAGGAU [Same State FMN A GF 3] | 94.5 nM | 87.7 nM | 108 nM | 88.4 nM | 90.8 nM
41 | UUACUGAGUGAUGUUUGGAAAUAUCCUAGGCAGGAUAUGCGGAAACGCAGAAGGGCCACCUUCUAGUGAAGGAAACUUCGCUAUU [Ex FMN A 4] | 536 nM | 284 nM | 423 nM | 397 nM | 379 nM
42 | UUAGAAGUAUACUUCAAGAGGUAUGCUGAUACCAGAGUCAAUUGACUCCCUUGGCAGCGGAUCGAGUGAUGUUCGUAACCUCAUU [AK3.1 SS Theophylline A] | 160 nM | 238 nM | 209 nM | 246 nM | 141 nM
